Experimental findings from paper PMC12176259, “Bacterial transcriptional repressor NrdR – a flexible multifactorial nucleotide sensor” (The Febs Journal, 2025) are described below.

“And” between values parts separate entries of the source, which are not always exact repeats. Equal entries are not always repeated.

The target of this data set is T1, NrdR (EcoNrdR) (Escherichia coli K-12 MG1655) (UniProt P0A8D0).
T1 sequence: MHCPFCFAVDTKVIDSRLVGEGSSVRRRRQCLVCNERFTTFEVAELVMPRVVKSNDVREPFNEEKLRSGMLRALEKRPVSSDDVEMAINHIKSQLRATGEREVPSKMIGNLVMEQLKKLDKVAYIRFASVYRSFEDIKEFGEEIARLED
As to the kind of experiment: MST. Conditions: 17 mM Tris-HCl pH 8.6 (room temperature), 100 mM NaCl, 7 mM MgCl2, 0.33 mM TCEP, 0.025% Tween-20, nucleotide effectors 1 mM each, 5 nM Cy5-dsDNA, low values mean tight binding.

Take “ACTATTTGCTATATATTGTGTGGTTGAATCTTTTTTCAACTACATCTAGTATCTCTG (double strand) [nrdHIEF promoter (nrdEF_Cy5)]”: the Kd was 138 nM and 328 nM and 187 nM.

As for “CATACCCCCTATATATAGTGTTCTAAGCAGCTTCCCGTACTACAGGTAGTCTGCATG (double strand) [nrdAB promoter box 1+2]”, the Kd is 128 nM and 113 nM and 96 nM.

In the case of “GCAAAGCACTATATATAGACTTTAAAATGCGTCCCAACCCAATATGTTGTATTAATC (double strand) [nrdDG promoter]”, the Kd is 160 nM and 171 nM and 152 nM.
